Data as given in article PMC6699858, “Ternary structure of the outer membrane transporter FoxA with resolved signalling domain provides insights into TonB-mediated siderophore uptake” (eLife, 2019).

Legend:
FoxA = target: T1, FoxA (Pseudomonas aeruginosa, UniProt Q9I116); assay: tryptophan fluorescence quenching (Kd […]); also ITC in nanodiscs (Kd […]) and co-crystal structures without and with TonBCt; format: binding
T1 construct: Full-length FoxA, purified in nonyl glucopyranoside

[1] = target: T2, FoxA from Pseudomonas aeruginosa strain PAO1, full-length (Pseudomonas aeruginosa strain PAO1, UniProt Q9I116 1-820, Signal peptide taken as removed in the outer membrane; text gives the mature start as 44 or 45, and 45 is used. His6 tag removed by TEV, residual TEV-site residues at the C-terminus omitted. Ferrioxam); assay: ITC; 150 μM TonBCt in the syringe, 15 μM apo FoxA in MSP1D1/POPC nanodiscs in the cell; 20 mM HEPES, 150 mM NaCl, pH 7.5; 26 °C; single-site model; triplicates, SD; details: both partners purified
[2] = target: T2, FoxA from Pseudomonas aeruginosa strain …; assay: ITC; 150 μM TonBCt in the syringe, 15 μM ferrioxamine B-bound FoxA in MSP1D1/POPC nanodiscs in the cell (dialysed against 1 mM FoaB); 20 mM HEPES, 150 mM NaCl, pH 7.5; 26 °C; single-site model; triplicates, SD; details: both partners purified

Molecule	Kd (FoxA)	Kd [1]	dH [1]	Kd [2]	dH [2]
CC(=O)N([O-])CCCCCNC(=O)CCC(=O)N([O-])CCCCCNC(=O)CCC(=O)N([O-])CCCCCN.[Fe+3] [FoaB, ferrioxamine B]	100 ± 10 nM	–	–	–	–
TonBCt, C-terminal domain of TonB1 from Pseudomonas aeruginosa strain PAO1 (residues 251-340) (domain or fragment, UniProt Q51368 251-340, looked up, TonB1, Pseudomonas aeruginosa PAO1, residues 251-340 (C-terminal domain); also called TonB fragment; C-terminal TonB domain; source: E. coli BL21 Gold, purified (HisTrap Ni-NTA, TEV, reverse purification)) DSDIKPLRMDPPVYPRMAQARGIEGRVKVLFTITSDGRIDDIQVLESVPSRMFDREVRQAMAKWRFEPRVSGGKIVARQATKMFFFKIEK	–	111 nM	-10.1 kcal/mol	6.6 nM	-18.1 kcal/mol
